Measured values: publication doi:10.1101/2024.04.23.590744 (bioRxiv, 2024)
Where two headings read alike, the source gives them in different places.

Experiments:
Test in all cases: SEC-MALS
[1] = target: human LETM1 F-EF-hand domain, residues 643-699, D676K/N678K (human) (UniProt O95202)
[2] = target: human LETM1 F-EF-hand domain, residues 643-699, D676K/N678K (human) (UniProt O95202); remark: listed apart in the source
SEC-MALS [3] = target: the molecule itself
SEC-MALS [4] = target: the molecule itself; remark: listed apart in the source

human LETM1 F-EF-hand domain, residues 643-699, D676K/N678K (from UniProt O95202-1 643-699) (domain or fragment)
stoichiometry N [1]: 2 | stoichiometry N [2]: 2

B1: human LETM1 F-EF-hand domain, residues 643-699, wild type (domain or fragment, UniProt O95202-1 643-699, looked up)
chain: TGENVISVAELINAMKQVKHIPESKLTSLAAALDENKDGKVNIDDLVKVIELVDKED
stoichiometry N (SEC-MALS [3]): ~2

B2: human LETM1 F-EF-hand domain, residues 643-699, D686A/D687A (domain or fragment, UniProt O95202-1 643-699, looked up)
chain: TGENVISVAELINAMKQVKHIPESKLTSLAAALDENKDGKVNIAALVKVIELVDKED
stoichiometry N (SEC-MALS [4]): 2

B3: human LETM1 F-EF-hand domain, residues 643-699, D676A/N678A (domain or fragment, UniProt O95202-1 643-699, looked up)
chain: TGENVISVAELINAMKQVKHIPESKLTSLAAALAEAKDGKVNIDDLVKVIELVDKED
stoichiometry N (SEC-MALS [4]): 2

B4: human LETM1 F-EF-hand domain, residues 643-699, D687E (domain or fragment, UniProt O95202-1 643-699, looked up)
chain: TGENVISVAELINAMKQVKHIPESKLTSLAAALDENKDGKVNIDELVKVIELVDKED
stoichiometry N (SEC-MALS [3]): 2
